The values that follow come from the RNAGym collection of RNA variant scans (doi:10.1093/molbev/msab373).

B1: Azoarcus group I ribozyme (parent)
chain: GUGCCUUGCGCCGGGAAACCACGCAAGGGAUGGUGUCAAAUUCGGCGAAACCUAAGCGCCCGCCCGGGCGUAUGGCAACGCCGAGCCAAGCUUCGGCGCCUGCGCCGAUGAAGGUGUAGAGACUAGACGGCACCCACCUAAGGCAAACGCUAUGGUGAAGGCAUAGUCCAGGGAGUGGCGAAAGUCACACAAACCGG

The variants in this series derive from B1. The series can be described thus: reverse-splicing fitness (ratio to wild type); higher = more active; in vitro selection; Mg2+ level not given. Put shortly: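 An in vitro group I ribozyme library with randomized positions was T7-transcribed and gel-purified. In triplicate, 10 pmol RNA in EPPS pH 7.5 was reacted with 50 pmoles of a 30-nt RNA substrate for 1 h at 37 °C across several added MgCl2 levels (1–48 mM), then stopped with EDTA. Products were reverse transcribed from a substrate-complementary primer, PCR-amplified and sequenced (HiSeq 4000). Fitness is a variant's read proportion after selection over that before, normalised to wild type.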
Consider GUGCCUUGCGCCGGGAAACCACGCAAGGGAUGGUGUCAAAUUCGGCGAAACCUAAGCGCCCGCCCGGGCGUAUGGCAACGCAGAGCCAAGCUUCGGCGCCUGCGCCGAUGAAGGUGUAGUGACUAGACGGCACCCACCUAAGGCAAACGAUAUGGUGAAGGCAUAGUCCAGGGAGAGGCGAAAGUCACACAAACCGG, for which the reverse-splicing fitness is 0.00729. On to GUGCCUUGCGCCGGGAAACCACGCAAGGGAUGGUGUCAAAUUCGGCGAAACCUAAGCGCCCGCCCGGGCGUAUGGCAACGCAGAGCCAAGCUUCGGCGCCUGCGCCGAUGAAGGUGUAGUGACUAGACGGCACCCACCUAAGGCAAACGAUAUGGUGAAGGCAUAGUCAAGGGAGCGGCGAAAGUCACACAAACCGG, for which the reverse-splicing fitness worked out at 0.00234.

GUGCCUUGCGCCGGGAAACCACGCAAGGGAUGGUGUCAAAUUCGGCGAAACCUAAGCGCCCGCCCGGGCGUAUGGCAACGCAGAGCCAAGCUUCGGCGCCUGCGCCGAUGAAGGUGUAGUGACUAGACGGCACCCACCUAAGGCAAACGAUAUGGUGAAGGCAUAGUCAAGGGAGGGGCGAAAGUCACACAAACCGG: the reverse-splicing fitness stood at 0.0024. Under GUGCCUUGCGCCGGGAAACCACGCAAGGGAUGGUGUCAAAUUCGGCGAAACCUAAGCGCCCGCCCGGGCGUAUGGCAACGCAGAGCCAAGCUUCGGCGCCUGCGCCGAUGAAGGUGUAGUGACUAGACGGCACCCACCUAAGGCAAACGAUAUGGUGAAGGCAUAGUCAAGGGAGAGGCGAAAGUCACACAAACCGG stands 0.00388; under GUGCCUUGCGCCGGGAAACCACGCAAGGGAUGGUGUCAAAUUCGGCGAAACCUAAGCGCCCGCCCGGGCGUAUGGCAACGCAGAGCCAAGCUUCGGCGCCUGCGCCGAUGAAGGUGUAGUGACUAGACGGCACCCACCUAAGGCUAACGCUAUGGUGAAGGCAUAGUCAAGGGAGCGGCGAAAGUCACACAAACCGG, 0.00182; under GUGCCUUGCGCCGGGAAACCACGCAAGGGAUGGUGUCAAAUUCGGCGAAACCUAAGCGCCCGCCCGGGCGUAUGGCAACGCAGAGCCAAGCUUCGGCGCCUGCGCCGAUGAAGGUGUAGUGACUAGACGGCACCCACCUAAGGCUAACGCUAUGGUGAAGGCAUAGUCAAGGGAGGGGCGAAAGUCACACAAACCGG, 0.00177.

Regarding GUGCCUUGCGCCGGGAAACCACGCAAGGGAUGGUGUCAAAUUCGGCGAAACCUAAGCGCCCGCCCGGGCGUAUGGCAACGCAGAGCCAAGCUUCGGCGCCUGCGCCGAUGAAGGUGUAGUGACUAGACGGCACCCACCUAAGGCUAACGCUAUGGUGAAGGCAUAGUCAAGGGAGAGGCGAAAGUCACACAAACCGG, the reverse-splicing fitness amounted to 0.00216. As for GUGCCUUGCGCCGGGAAACCACGCAAGGGAUGGUGUCAAAUUCGGCGAAACCUAAGCGCCCGCCCGGGCGUAUGGCAACGCAGAGCCAAGCUUCGGCGCCUGCGCCGAUGAAGGUGUAGUGACUAGACGGCACCCACCUAAGGCAAACGAUAUGGUGAAGGCAUAGUCUAGGGAGCGGCGAAAGUCACACAAACCGG, the figure is 0.00414; as for GUGCCUUGCGCCGGGAAACCACGCAAGGGAUGGUGUCAAAUUCGGCGAAACCUAAGCGCCCGCCCGGGCGUAUGGCAACGCAGAGCCAAGCUUCGGCGCCUGCGCCGAUGAAGGUGUAGUGACUAGACGGCACCCACCUAAGGCAAACGAUAUGGUGAAGGCAUAGUCUAGGGAGAGGCGAAAGUCACACAAACCGG, 0.00391; as for GUGCCUUGCGCCGGGAAACCACGCAAGGGAUGGUGUCAAAUUCGGCGAAACCUAAGCGCCCGCCCGGGCGUAUGGCAACGCAGAGCCAAGCUUCGGCGCCUGCGCCGAUGAAGGUGUAGUGACUAGACGGCACCCACCUAAGGCAAACGAUAUGGUGAAGGCAUAGUCUAGGGAGGGGCGAAAGUCACACAAACCGG, 0.00215.

On to GUGCCUUGCGCCGGGAAACCACGCAAGGGAUGGUGUCAAAUUCGGCGAAACCUAAGCGCCCGCCCGGGCGUAUGGCAACGCAGAGCCAAGCUUCGGCGCCUGCGCCGAUGAAGGUGUAGUGACUAGACGGCACCCACCUAAGGCAAACGAUAUGGUGAAGGCAUAGUCCAGGGAGUGGCGAAAGUCACACAAACCGG, for which the reverse-splicing fitness came to 0.016. Take GUGCCUUGCGCCGGGAAACCACGCAAGGGAUGGUGUCAAAUUCGGCGAAACCUAAGCGCCCGCCCGGGCGUAUGGCAACGCAGAGCCAAGCUUCGGCGCCUGCGCCGAUGAAGGUGUAGUGACUAGACGGCACCCACCUAAGGCUAACGCUAUGGUGAAGGCAUAGUCUAGGGAGCGGCGAAAGUCACACAAACCGG: the reverse-splicing fitness is 0.00276.

In the case of GUGCCUUGCGCCGGGAAACCACGCAAGGGAUGGUGUCAAAUUCGGCGAAACCUAAGCGCCCGCCCGGGCGUAUGGCAACGCAGAGCCAAGCUUCGGCGCCUGCGCCGAUGAAGGUGUAGUGACUAGACGGCACCCACCUAAGGCUAACGCUAUGGUGAAGGCAUAGUCUAGGGAGAGGCGAAAGUCACACAAACCGG, the reverse-splicing fitness came out at 0.00202. GUGCCUUGCGCCGGGAAACCACGCAAGGGAUGGUGUCAAAUUCGGCGAAACCUAAGCGCCCGCCCGGGCGUAUGGCAACGCAGAGCCAAGCUUCGGCGCCUGCGCCGAUGAAGGUGUAGUGACUAGACGGCACCCACCUAAGGCUAACGCUAUGGUGAAGGCAUAGUCUAGGGAGGGGCGAAAGUCACACAAACCGG: the reverse-splicing fitness amounted to 0.00154.

As for GUGCCUUGCGCCGGGAAACCACGCAAGGGAUGGUGUCAAAUUCGGCGAAACCUAAGCGCCCGCCCGGGCGUAUGGCAACGCAGAGCCAAGCUUCGGCGCCUGCGCCGAUGAAGGUGUAGUGACUAGACGGCACCCACCUAAGGCUAACGUUAUGGUGAAGGCAUAGUCCAGGGAGGGGCGAAAGUCACACAAACCGG, the reverse-splicing fitness amounted to 0.0066. Take GUGCCUUGCGCCGGGAAACCACGCAAGGGAUGGUGUCAAAUUCGGCGAAACCUAAGCGCCCGCCCGGGCGUAUGGCAACGCAGAGCCAAGCUUCGGCGCCUGCGCCGAUGAAGGUGUAGUGACUAGACGGCACCCACCUAAGGCUAACGCUAUGGUGAAGGCAUAGUCGAGGGAGCGGCGAAAGUCACACAAACCGG: the reverse-splicing fitness was 0.00254.

As for GUGCCUUGCGCCGGGAAACCACGCAAGGGAUGGUGUCAAAUUCGGCGAAACCUAAGCGCCCGCCCGGGCGUAUGGCAACGCAGAGCCAAGCUUCGGCGCCUGCGCCGAUGAAGGUGUAGUGACUAGACGGCACCCACCUAAGGCUAACGCUAUGGUGAAGGCAUAGUCGAGGGAGAGGCGAAAGUCACACAAACCGG, the reverse-splicing fitness was 0.00173.

As for GUGCCUUGCGCCGGGAAACCACGCAAGGGAUGGUGUCAAAUUCGGCGAAACCUAAGCGCCCGCCCGGGCGUAUGGCAACGCAGAGCCAAGCUUCGGCGCCUGCGCCGAUGAAGGUGUAGUGACUAGACGGCACCCACCUAAGGCUAACGCUAUGGUGAAGGCAUAGUCGAGGGAGGGGCGAAAGUCACACAAACCGG, the reverse-splicing fitness was determined as 0.00116.

On to GUGCCUUGCGCCGGGAAACCACGCAAGGGAUGGUGUCAAAUUCGGCGAAACCUAAGCGCCCGCCCGGGCGUAUGGCAACGCAGAGCCAAGCUUCGGCGCCUGCGCCGAUGAAGGUGUAGUGACUAGACGGCACCCACCUAAGGCUAACGCUAUGGUGAAGGCAUAGUCCAGGGAGAGGCGAAAGUCACACAAACCGG, for which the reverse-splicing fitness came to 0.036. Turning to GUGCCUUGCGCCGGGAAACCACGCAAGGGAUGGUGUCAAAUUCGGCGAAACCUAAGCGCCCGCCCGGGCGUAUGGCAACGCAGAGCCAAGCUUCGGCGCCUGCGCCGAUGAAGGUGUAGUGACUAGACGGCACCCACCUAAGGCUAACGCUAUGGUGAAGGCAUAGUCCAGGGAGCGGCGAAAGUCACACAAACCGG, the reverse-splicing fitness stood at 0.0582.

For the variant GUGCCUUGCGCCGGGAAACCACGCAAGGGAUGGUGUCAAAUUCGGCGAAACCUAAGCGCCCGCCCGGGCGUAUGGCAACGCAGAGCCAAGCUUCGGCGCCUGCGCCGAUGAAGGUGUAGUGACUAGACGGCACCCACCUAAGGCUAACGCUAUGGUGAAGGCAUAGUCCAGGGAGGGGCGAAAGUCACACAAACCGG, the reverse-splicing fitness was determined as 0.01. With GUGCCUUGCGCCGGGAAACCACGCAAGGGAUGGUGUCAAAUUCGGCGAAACCUAAGCGCCCGCCCGGGCGUAUGGCAACGCAGAGCCAAGCUUCGGCGCCUGCGCCGAUGAAGGUGUAGUGACUAGACGGCACCCACCUAAGGCUAACGCUAUGGUGAAGGCAUAGUCUAGGGAGUGGCGAAAGUCACACAAACCGG, the reverse-splicing fitness amounted to 0.0055. As for GUGCCUUGCGCCGGGAAACCACGCAAGGGAUGGUGUCAAAUUCGGCGAAACCUAAGCGCCCGCCCGGGCGUAUGGCAACGCAGAGCCAAGCUUCGGCGCCUGCGCCGAUGAAGGUGUAGUGACUAGACGGCACCCACCUAAGGCUAACGCUAUGGUGAAGGCAUAGUCAAGGGAGUGGCGAAAGUCACACAAACCGG, the reverse-splicing fitness was 0.00202. As for GUGCCUUGCGCCGGGAAACCACGCAAGGGAUGGUGUCAAAUUCGGCGAAACCUAAGCGCCCGCCCGGGCGUAUGGCAACGCAGAGCCAAGCUUCGGCGCCUGCGCCGAUGAAGGUGUAGUGACUAGACGGCACCCACCUAAGGCUAACGCUAUGGUGAAGGCAUAGUCGAGGGAGUGGCGAAAGUCACACAAACCGG, the figure is 0.00509; as for GUGCCUUGCGCCGGGAAACCACGCAAGGGAUGGUGUCAAAUUCGGCGAAACCUAAGCGCCCGCCCGGGCGUAUGGCAACGCAGAGCCAAGCUUCGGCGCCUGCGCCGAUGAAGGUGUAGUGACUAGACGGCACCCACCUAAGGCAAACGAUAUGGUGAAGGCAUAGUCGAGGGAGGGGCGAAAGUCACACAAACCGG, 0.00162.

Turning to GUGCCUUGCGCCGGGAAACCACGCAAGGGAUGGUGUCAAAUUCGGCGAAACCUAAGCGCCCGCCCGGGCGUAUGGCAACGCAGAGCCAAGCUUCGGCGCCUGCGCCGAUGAAGGUGUAGUGACUAGACGGCACCCACCUAAGGCAAACGAUAUGGUGAAGGCAUAGUCGAGGGAGAGGCGAAAGUCACACAAACCGG, the reverse-splicing fitness was found to be 0.00593. As for GUGCCUUGCGCCGGGAAACCACGCAAGGGAUGGUGUCAAAUUCGGCGAAACCUAAGCGCCCGCCCGGGCGUAUGGCAACGCAGAGCCAAGCUUCGGCGCCUGCGCCGAUGAAGGUGUAGUGACUAGACGGCACCCACCUAAGGCAAACGAUAUGGUGAAGGCAUAGUCGAGGGAGCGGCGAAAGUCACACAAACCGG, the figure is 0.0032; as for GUGCCUUGCGCCGGGAAACCACGCAAGGGAUGGUGUCAAAUUCGGCGAAACCUAAGCGCCCGCCCGGGCGUAUGGCAACGCAGAGCCAAGCUUCGGCGCCUGCGCCGAUGAAGGUGUAGUGACUAGACGGCACCCACCUAAGGCAAACGAUAUGGUGAAGGCAUAGUCUAGGGAGUGGCGAAAGUCACACAAACCGG, 0.00372.

With GUGCCUUGCGCCGGGAAACCACGCAAGGGAUGGUGUCAAAUUCGGCGAAACCUAAGCGCCCGCCCGGGCGUAUGGCAACGCAGAGCCAAGCUUCGGCGCCUGCGCCGAUGAAGGUGUAGUGACUAGACGGCACCCACCUAAGGCAAACGAUAUGGUGAAGGCAUAGUCGAGGGAGUGGCGAAAGUCACACAAACCGG, the reverse-splicing fitness came out at 0.00417. With GUGCCUUGCGCCGGGAAACCACGCAAGGGAUGGUGUCAAAUUCGGCGAAACCUAAGCGCCCGCCCGGGCGUAUGGCAACGCAGAGCCAAGCUUCGGCGCCUGCGCCGAUGAAGGUGUAGUGACUAGACGGCACCCACCUAAGGCAAACGAUAUGGUGAAGGCAUAGUCAAGGGAGUGGCGAAAGUCACACAAACCGG, the reverse-splicing fitness turned out to be 0.0042.
